Measurements reported in patent US20090233993A1, “COMPOSITIONS AND METHODS FOR INHIBITING GSK3 ACTIVITY AND USES THEREOF” (Burnham Institute for Medical Research, priority 2008, published 2009).
Values joined by “and” are separate entries in the source; they are usually repeats but may differ in a detail not shown here. Equal entries are not always repeated.

Legend:
[1] = tested on: FG01 transgenic mouse brain; assay: brain-specific FG01 transgenic mice, brain analysis; assay type: in vivo
Source text: (§1) Brain-specific FG01 transgenic mice were generated using a FG01 expression cassette. FG01 has an N-terminal Myc tag and is driven by the human Thy-1 promoter for neuron-specific expression. A SV40 polyA fragment is linked at the 3′ end for enhancing expression. Genotyping P5 primer was complementary to hThy1 sequence. Genotyping P3 primer was complementary to SV40/Poly A sequence. Reverse transcription primer RT-P5 was complementary to sequence on the 5′ side of the FG01 sequence. Hemizygous FG01 transgenic mice were crossed with homozygous triple transgenic (3×Tg) AD mice harboring mutations in human APP and tau genes on a presenilin 1 (PS1) mutant background (Oddo et al., 2003). Procedures involving animals and their care conformed to institutional guidelines (Animal Resources Department at Burnham Institute for Medical Research).
N-terminally Myc-tagged FG01 cDNA was cloned into pHZ04 construct between the human Thy-1 promoter and the SV40 polyA regions. Purified, linearized minigenes containing these sequences were microinjected into prenuclear embryos from superovulated C57B16 females. Two primers (Genotyping-P5: 5′-[…]-3′; SEQ ID NO:25), and Genotyping-P3: 5′-[…]-3′; SEQ ID NO:26) located within the human Thy-1 promoter and the SV40 regions, respectively, were used for genotyping. Brain tissues from confirmed transgenic mice and littermate controls were used for RNA extraction, reverse transcription and PCR with RT-P5 primer (5′-AGAATTTGGCTGTTTGG-3′; SEQ ID NO:27) located within the FG01 cDNA region paired with the Genotyping-P3 primer to verify Myc-FG01 expression. Alternatively, brain lysates were immunoprecipitated and analyzed by Western blot with the Myc antibody to verify Myc-FG01 expression. Procedures involving animals and their care conformed to institutional guidelines (Animal Resources Department at Burnham Institute for Medical Research).
To validate FG01 function in vivo, an FG01 transgenic mouse model specifically overexpressing Myc-tagged FG01 in the brain was generated. A transgenic expression cassette driven by the human Thy-1 promoter was microinjected into C57B16 mice and primers specifically amplifying exogenous Myc-FG01 were used to genotype transgenic mice. Genomic DNA extracted from mouse tail samples was genotyped by PCR using Genotyping-P5 and Genotyping-P3 primers located in the human Thy1 and SV40 polyA regions, respectively. […] Total RNA was extracted from the brain of an FG01 transgenic mouse (1) and of a littermate control (0), followed by RT-PCR with the RT-P5 primer located within the FG01-coding region and the Genotyping-P3 primer for detecting Myc-FG01 mRNA. Immunoprecipitation/Western blot confirmed that exogenous Myc-tagged FG01 protein was expressed in brain tissues of transgenic mice. Brain samples from FG01 transgenic (Tg) mice and littermate controls (Non-Tg) were analyzed for levels of phosphorylated/total CREB, phosphorylated/total GSK-3, and various tau forms by direct Western blot. Myc-FG01 was detected by immunoprecipitation-Western blot using the Myc antibody. Two mouse lines with similar exogenous FG01 expression levels were generated and the results obtained from the two lines (including their crossing with 3×Tg mice as described below) were similar. […] Brain lysates from FG01-Tg and Non-Tg mice were analyzed for GSK-3β activity. Results were normalized to those of Non-Tg samples.

adenylate cyclases = assay: co-immunoprecipitation of FG01 with adenylate cyclases; assay type: binding, mouse; conditions: N2a cells overexpressing FG01
Procedure: After 48-72 hrs, cells were lysed and cell lysates were subjected to immunoprecipitation with mouse IgG, rabbit IgG, myc antibody and adenylyl cyclase (AC) antibody (Santa Cruz Biotechnology, catalog number sc-1701), and then immunoblotted with antibodies against adenylyl cyclase (AC) and myc, respectively.
Cells transfected with FG01 were lysed in either CHAPSO buffer (1% CHAPSO, 25 mM HEPES, pH7.4, 150 mM NaCl, and 2 mM EDTA supplemented with protease inhibitors) or in NP40 buffer (1% NP40 in phosphate buffered saline, supplemented with protease inhibitors). Lysates were immunoprecipitated using mouse IgG, rabbit IgG, and antibodies against Myc or adenylate cyclases and Trueblot™ IP beads (eBioscience), followed by Western blot with antibodies against Myc or adenylate cyclases.

3×Tg AD mice = assay: FG01 transgenic mice crossed with triple transgenic (3×Tg) AD mice, brain analysis; assay type: in vivo, mouse
Source text: as §1
FG01/3×Tg mice and littermate controls on a 3×Tg background were sacrificed at 11 months of age. Half of the brain was used for immunoblot analysis and the other half was paraffin-embedded for immunohistochemistry. Sagittal brain sections (4 μm) were deparaffinized, hydrated, and then immunostained with anti-Aβ antibody (6E10), anti-phosphorylated tau antibody (PHF-1), or anti-synapsin antibody. After additional incubation with biotinylated secondary antibody, samples were incubated in ABC Elite (HRP) reagent (Vector Laboratories). Reactions were visualized by developing in DAB substrates (Vector Laboratories). All samples were visualized under a light microscope.
FG01 transgenic mice were crossed with triple transgenic (3×Tg) AD mice harboring mutations in human APP, tau and presenilin 1 (PS1) genes (Oddo et al., 2003).

β-catenin = β-catenin level in mouse N2a cells (Western blot); assay type: cell-based; conditions: FG01 overexpression
Source text: The levels of total GSK-3 were used as normalization factors.

cAMP levels = assay: cAMP assay in rat PC12 cells; assay type: cell-based; conditions: FG01 overexpression
Procedure: (§2) Commercial kits were used to assay in vitro activities of GSK-3β (Sigma) and PKA (Upstate). For GSK-3α activity, a commercial GSK-3β activity assay kit was used but the procedure to immunoprecititate GSK-3β was replaced with immunoprecipitation of GSK-3α using an anti-GSK-3α antibody (Cell Signaling). cAMP levels were assayed using a commercial kit (Biovision).

PKC = PKC activity in N2a cell lysates (32P peptide substrate); assay type: cell-based, mouse; conditions: FG01 overexpression in N2a cells
Procedure: N2a cells were transfected with pcDNA or FG01. After lysis, cell lysates containing […] of total proteins were incubated with synthesized PKC specific peptide substrate and ^32P-ATP. The ^32P labeled peptides were captured and the radioactivities were quantified by scintillation. The activities of PKC were represented by the normalized radioactivities of the labeled peptide substrates. n=4.

GSK-3β = GSK-3β in vitro kinase activity after immunoprecipitation from N2aSwe cells; assay type: cell-based, mouse; conditions: in vitro kinase assay, FG01-overexpressing N2aSwe cells vs control
Source text: The levels of the recombinant Notch (NotchΔE with Myc-tag) and the γ-secretase cleaved Notch fragment (NICD) were quantified by Western blotting using myc antibody and an antibody specific to processed Notch followed by densitometry. […] The results represent at least four independent experiments.
as §2

[2] = FG01/3×Tg vs 3×Tg littermates, 11 months

B1: FG01: 141 amino acid transmembrane protein encoded by mouse retrogene fg01 (SEQ ID NO:2); expressed from transfected vector or transgene (protein)
chain: MQSQQRNIGYFNHLKADSRNITYSMTFSTKSSNQNFIIFLNEVQAAIIGHERCDLLPVLNELHPDALPDGRIWLFGLNPYFFQHNSLCMRGTPKRIGLQGCAQVGFLVLFVMPLLIPSVTAELPGSSETTTLAHLAGATGP
modifications: Myc and His6 tags; homo sapien
notes: expressed from transfected vector or transgene
- levels of phosphorylated (inactive) GSK-3α/β in brain ([1]; FG01 transgenic vs littermate non-Tg mice): increased
- CREB phosphorylation in brain ([1]; FG01 transgenic vs non-Tg mice): Increased
- phosphorylation of endogenous mouse brain tau ([1]; FG01 transgenic vs non-Tg mice): decreased
- GSK-3β activity in brain ([1]; FG01 transgenic vs non-Tg mice, brain lysates): reduced
- behavioral phenotypes ([1]; observation of FG01 transgenic mice): no obvious aberrant behavioral phenotypes
- interaction with adenylate cyclases (adenylate cyclases): interacts
- levels of the synaptic marker PSD-95 (3×Tg AD mice; 3×Tg mouse brains with FG01 overexpression): markedly increased
- Aβ generation in brain (3×Tg AD mice; [2]): reduced
- GSK-3 activity in brain (3×Tg AD mice; [2]): reduced
- PKA activity in brain (3×Tg AD mice; [2]): dramatically increased
- tau phosphorylation in brain (3×Tg AD mice; [2]): reduced
- number of Aβ-immunostaining-positive neurons (3×Tg AD mice; hippocampus and cortex, immunohistochemistry 6E10): significantly decreased
- number of phosphorylated tau-immunostaining-positive neurons (3×Tg AD mice; hippocampus and cortex, immunohistochemistry PHF-1): significantly decreased
- synapsin immunostaining (3×Tg AD mice; hippocampus, vs 3×Tg mice without FG01): much higher immunoreactivity
- level of β-catenin (β-catenin): increases
- increase of cAMP levels (cAMP levels): 75%
- PKC activity (PKC): increased
- decrease in GSK-3β activity (GSK-3β): ~30% and 40%
